# Patent US20020147129A1
# How the values were obtained:
# [1] = target: AT4 receptor of sheep central nervous system (sheep); assay: competition for [125I]Ang IV binding, sheep cerebellar cortical membranes
# [2] = target: angiotensin AT4 receptor of Macaca fascicularis brain (Macaca fascicularis); assay: competition for [125I]Ang IV binding, monkey prefrontal cortical sections
# [3] = target: AT4 receptor of sheep central nervous system (sheep); assay: competition for 125I-LVV-haemorphin-7 binding, sheep cerebellar cortical membranes
# [4] = target: embryonic chicken Ang II receptor (chicken); assay: competition for 125I[Sar1Ile8]Ang II binding, E13 chicken chorioallantoic membranes
# [5] = target: embryonic chicken AT4 receptor (chicken); assay: competition for [125I]Ang IV binding, E13 chicken chorioallantoic membranes
# embryonic chicken Ang II receptor (chicken), sequence (P79785 whole entry): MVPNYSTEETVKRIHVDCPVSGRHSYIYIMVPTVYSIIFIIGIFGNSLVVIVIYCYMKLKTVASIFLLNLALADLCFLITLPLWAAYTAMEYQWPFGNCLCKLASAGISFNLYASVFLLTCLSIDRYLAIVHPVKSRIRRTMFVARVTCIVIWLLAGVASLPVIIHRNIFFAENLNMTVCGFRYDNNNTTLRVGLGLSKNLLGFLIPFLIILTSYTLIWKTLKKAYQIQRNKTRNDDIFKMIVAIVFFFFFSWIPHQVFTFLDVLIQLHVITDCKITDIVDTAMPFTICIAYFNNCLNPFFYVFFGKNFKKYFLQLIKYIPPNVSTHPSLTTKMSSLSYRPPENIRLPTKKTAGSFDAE
Substance,IC50 [1] [nM],IC50 [2] [nM],IC50 [3] [nM],IC50 [4] [nM],concentration effective at competing for 50% of the sites [5] [µM]
angiotensin III (from UniProt P01019 26-32) (peptide),6.9,80,77,–,–
angiotensin II (from UniProt P01019 25-32) (peptide),2000,730,1600,100,–
CGP 42112 (peptide),–,–,–,180,0.5
